Test results as given in patent US20230324408A1 (JUNO THERAPEUTICS, published 2023).

How the values were obtained:
[1] = target: exemplary anti-ROR1 (ROR 1-1) chimeric antigen receptor; assay: cell-based or functional assay
[2] = target: exemplary anti-ROR1 (ROR 1-1) chimeric antigen receptor; assay: cell-based or functional assay; remark: listed apart in the source

Sequence of exemplary anti-ROR1 (ROR 1-1) chimeric antigen receptor (chain, as listed by the source mutant limits assumed): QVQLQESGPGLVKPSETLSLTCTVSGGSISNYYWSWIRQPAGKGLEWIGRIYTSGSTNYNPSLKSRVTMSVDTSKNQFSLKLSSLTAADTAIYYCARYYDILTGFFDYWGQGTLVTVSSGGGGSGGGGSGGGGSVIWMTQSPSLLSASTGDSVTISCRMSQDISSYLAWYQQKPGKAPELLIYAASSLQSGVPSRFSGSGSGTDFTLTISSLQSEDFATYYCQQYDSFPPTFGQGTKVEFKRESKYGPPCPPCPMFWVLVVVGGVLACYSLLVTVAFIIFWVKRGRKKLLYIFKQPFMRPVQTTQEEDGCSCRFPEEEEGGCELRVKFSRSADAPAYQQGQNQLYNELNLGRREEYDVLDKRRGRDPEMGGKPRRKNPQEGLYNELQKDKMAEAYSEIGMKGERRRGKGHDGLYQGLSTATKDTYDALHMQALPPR

B1: anti-idiotype antibody clone F101 (antibody, mouse IgG1, kappa, V domains shown)
VH: QVQFQQSGAELARPGASVKLSCKASGYTFTSYWMQWVKQRPGQGLEWIGTIYPGDGDARYSQKFKGKATLTADKSSSTAYMQLSSLASEDSAVYYCTRRRGYDAMDYWGQGTSVTVSS
VL: NIVLTQSPASLAVSLGQRATISCRASESVDSYGSSFMHWYQEKPGQPPKLLIFLASNLESGVPARFSGSGSRTDFTLTIDPVEADDAATYYCQQNNEDPNMYTFGGGTKLEIRR
Q: What does the source list for B1?
A: % Nur77-TdT of EGFRt+ cells, plate coated with 5 ug/ml antibody [1]: 89.8%; % Nur77-TdT of EGFRt+ cells, soluble antibody 0.3 ug/mL [2]: 11.4%; % Nur77-TdT of EGFRt+ cells, soluble antibody 0.6 ug/mL [2]: 11.8%; % Nur77-TdT of EGFRt+ cells, soluble antibody 10 ug/mL [2]: 11.7%

B2: anti-idiotype antibody clone F112 (antibody, mouse IgG1, V domains shown)
VH: QVQLQQPGAELVRPGASVKLSCKASGYPFTSYWINWVKQRPGQGLEWIGMIDPSDSETHYNQMFKDKATLTVDRSSSTAYMHLSSLTSEDSAVYYCARGGIRDYWGQGTTLTVSS
VL: QAVVTQESALTTSPGETVTLTCRSSTGAVTTSNYANWVQEKSDHLFTGLIGGTNNRAPGVPARFSGSLIGDKAALTITGAQTEDEAIYFCALWYSNHWVFGGGTKLTVLG
Q: Which “% Nur77-TdT of EGFRt+ cells, plate coated with 5 ug/ml antibody” value [1] does the source give for B2 here?
A: 83.9%

Q: What about the “% Nur77-TdT of EGFRt+ cells, soluble antibody 0.3 ug/mL” value [2] of the same binder?
A: 38.3%

Q: What about the “% Nur77-TdT of EGFRt+ cells, soluble antibody 0.6 ug/mL” value [2] of the same binder?
A: 41.3%

Q: And the “% Nur77-TdT of EGFRt+ cells, soluble antibody 10 ug/mL” value [2]?
A: 43.2%

B3: anti-idiotype antibody clone F107 (antibody, mouse IgG1, kappa, V domains shown)
VH: QVTLKESGPGILKPSQTLSLTCSFSGFSLNTFGMGVGWIRQPSGKGLEWLAHIWWDDDKHYHPSLKSQLTISKDTSRNQVFLKITSVDTTDTATYYCVRRYRYDVFDYWGPGTTLTVSS
VL: DVMMTQTPLSLPVSLGDQASISCRSSQSLVHSNGNTYLHWYLQKPGQSPKLLIYKVSNRFSGVPDRFSGSGSGTDFTLKISRVEAEDLGVYFCSQSTHGPWTFGGGTKLEIKR
Q: With B3 as the binder, how does the “% Nur77-TdT of EGFRt+ cells, plate coated with 5 ug/ml antibody” value [1] read?
A: 85%

Q: And the “% Nur77-TdT of EGFRt+ cells, soluble antibody 0.3 ug/mL” value [2]?
A: 15.6%

Q: What about the “% Nur77-TdT of EGFRt+ cells, soluble antibody 0.6 ug/mL” value [2] of the same binder?
A: 19.9%

Q: And the “% Nur77-TdT of EGFRt+ cells, soluble antibody 10 ug/mL” value [2]?
A: 28.3%
